Test results as given in US20070148663A1 (TRUSTEES OF COLUMBIA UNIVERSITY IN THE CITY OF NEW YORK, published 2007).
Positions count from the first letter of the chain named.

B1: GST-APC-C1 (amino acids 2674-2843) (other, UniProt P25054 2674-2843, looked up)
chain: SPTGNTPPVIDSVSEKANPNIKDSKDNQAKQNVGNGSVPMRTVGLENRLNSFIQVDAPDQKGTEIKPGQNNPVPVSETNESSIVERTPFSSSSSSKHSSPSGTVAARVTPFNYNPSPRKSSADSTSARPSQIPTPVNNNTKKRDSKTDSTESSGTQSPKRHSGSYLVTSV
notes: range 2674-2843; Gift from R. Baer; not shown: glutathione S-transferase (GST) tag
B2: mDia2 FH1 domain fragment, in vitro transcribed and translated, 35S-labelled (other, UniProt Q9Z207 540-610, looked up)
chain: PLQPSVEGEAGPSALPPAPPALSGGVPPPPPPPPPPPPPLPGMPMPFGGPVPPPPPLGFLGGQSSIPLNLP
modifications: 35S-methionine label
notes: domain: FH1
B3: GST-EB1 (other, mouse, UniProt Q61166 1-268, looked up)
chain: MAVNVYSTSVTSDNLSRHDMLAWINESLQLNLTKIEQLCSGAAYCQFMDMLFPGSIALKKVKFQAKLEHEYIQNFKILQAGFKRMGVDKIIPVDKLVKGKFQDNFEFVQWFKKFFDANYDGKEYDPVAARQGQETAVAPSLVAPALSKPKKPLGSSTAAPQRPIATQRTTAAPKAGPGMVRKNPGVGNGDDEAAELMQQVKVLKLTVEDLEKERDFYFGKLRNIELICQENEGENDPVLQRIVDILYATDEGFVIPDEGGPQEEQEEY
notes: not shown: glutathione S-transferase (GST) tag, N-terminal, vector pGEX-2T
B4: GST-EB1-C (other, mouse, UniProt Q61166 165-268, looked up)
chain: ATQRTTAAPKAGPGMVRKNPGVGNGDDEAAELMQQVKVLKLTVEDLEKERDFYFGKLRNIELICQENEGENDPVLQRIVDILYATDEGFVIPDEGGPQEEQEEY
notes: range 165-268; also called glutathione S-transferase fused to EB1-C; not shown: glutathione S-transferase (GST) tag, N-terminal, vector pGEX-2T
B5: EB1-C-EEKR-GFP (other, mouse, UniProt Q61166 165-268, looked up)
chain: B4 chain with E47A, E49A, K56A, R58A
notes: range 165-268; not shown: GFP tag (vector pGFP-NKB)
B6: EB1-C-KR-GFP (other, mouse, UniProt Q61166 165-268, looked up)
chain: B4 chain with K56A, R58A
notes: as for B5

Legend:
[1] = molecular target: T1, His-521-1040-mDia2 (purified recombinant protein) (UniProt Q9Z207 521-1040); test: direct binding of purified recombinant proteins, GST pull-down, anti-His western blot
T1 construct: also called His-mDia; not shown: His tag of vector pQE-30 (detected with RGS-His antibody)
T1 sequence (Q9Z207 521-1040): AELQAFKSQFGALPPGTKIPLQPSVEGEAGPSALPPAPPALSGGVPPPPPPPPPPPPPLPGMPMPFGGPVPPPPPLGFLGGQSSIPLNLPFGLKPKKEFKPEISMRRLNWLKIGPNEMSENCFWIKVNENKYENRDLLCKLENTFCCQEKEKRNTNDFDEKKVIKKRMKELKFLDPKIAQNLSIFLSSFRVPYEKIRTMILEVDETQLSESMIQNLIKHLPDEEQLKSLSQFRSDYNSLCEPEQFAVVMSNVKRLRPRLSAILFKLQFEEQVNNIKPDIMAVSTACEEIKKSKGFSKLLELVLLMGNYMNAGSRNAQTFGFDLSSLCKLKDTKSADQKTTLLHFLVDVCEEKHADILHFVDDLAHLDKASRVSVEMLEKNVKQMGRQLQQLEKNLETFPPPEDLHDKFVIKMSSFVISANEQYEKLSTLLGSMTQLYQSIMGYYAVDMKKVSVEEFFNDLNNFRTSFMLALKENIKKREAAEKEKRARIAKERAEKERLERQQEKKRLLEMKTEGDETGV
From the text: (§1) Bound proteins were detected by western blotting with antibodies to Flag-mDia1, tubulin and actin. […] Bound His-mDia was detected by western blotting with an anti-His antibody. (e) Endogenous mDia1 and EB1 co-immunoprecipitate with APC. Mouse brain extracts and COS-7 cell lysates were immunoprecipitated with APC antibodies and precipitates analyzed for APC, mDia1 and EB1 by western blotting with the indicated antibodies. IgG, non-immune immunoglobulin G used for control immunoprecipitation. (f) Schematic representation of the interactions between mDia, EB1 and APC. EB1 and APC bind to mDia through different domains than they use to bind to each other. Note that although EB1 and APC bind to the FH1-FH2 region of mDia, the individual binding sites within this domain have not been mapped. The molecules are not drawn to scale.
mDia2 transcripts labeled with ³⁵S-methionine (Amersham Biosciences) were generated with Quick-Coupled Transcription/Translation Systems (Promega). […] After washing, bound proteins were eluted with SDS sample buffer and analyzed by SDS-PAGE. […] The treated lysates were incubated with GST-tagged constructs as described above and analyzed by western blotting with mouse anti-Flag-M2 antibody (1:10,000; Sigma), rabbit anti-tubulin10 (W2; 1:50,000) and mouse anti-actin (C4D6; 1:50,000). […] Bound proteins were analyzed by western blotting with mouse RGS-His antibody (1:10,000).

[2] = molecular target: T2, GST-APC-C (amino acids 2167-2843) (UniProt P25054 2167-2843); test: GST pull-down of 35S-labelled in vitro translated protein, autoradiography
T2 construct: range 2167-2843; Gift from R. Baer; not shown: glutathione S-transferase (GST) tag
From the text: as §1, with “EB1 and APC interact with mDia. (a) Binding of in vitro transcribed and translated ³⁵S-labelled ΔGBD-mDia2 to the indicated GST-tagged constructs of EB1 and APC (bottom). Arrows indicate full-length GST-APC-C or GST-APC-basic proteins. Additional bands detected in the GST-APC-C and GST-APC-basic lanes are presumed to be breakdown products. (b) Binding of in vitro transcribed and translated ³⁵S-labelled mDia2 fragments to GST-EB1, GST and GST-APC-C. (c) Binding of Flag-mDia1 expressed in COS-7 cells to GST-EB1 and GST-APC-C in the presence of DMSO, nocodazole (NZ) and latrunculin A (Lat A). Bound proteins” for “Bound proteins”
(§2) mDia2 transcripts labeled with ³⁵S-methionine (Amersham Biosciences) were generated with Quick-Coupled Transcription/Translation Systems (Promega). Equal molar amounts of GST, GST-EB1 or GST-APC on beads were incubated with labeled transcripts for 2 h at 4° C. in PBS containing 1% Triton X-100 and protease inhibitors. After washing, bound proteins were eluted with SDS sample buffer and analyzed by SDS-PAGE. Gels were incubated for 15-30 min in Amplify (Amersham Biosciences), dried and autoradiographed for 1-24 h. Flag-mDia1 (40) was transfected into COS-7 cells, lysates prepared and treated with 0.5 μM latrunculin A, 10 μM nocodazole or DMSO for 1 h on ice.

GST-EB1 = molecular target: B3; test: as above
From the text: as §1, with “EB1 and APC interact with mDia. (a) Binding of in vitro transcribed and translated ³⁵S-labelled ΔGBD-mDia2 to the indicated GST-tagged constructs of EB1 and APC (bottom). Arrows indicate full-length GST-APC-C or GST-APC-basic proteins. Additional bands detected in the GST-APC-C and GST-APC-basic lanes are presumed to be breakdown products. (b) Binding of in vitro transcribed and translated ³⁵S-labelled mDia2 fragments to GST-EB1, GST and GST-APC-C. (c) Binding of Flag-mDia1 expressed in COS-7 cells to GST-EB1 and GST-APC-C in the presence of DMSO, nocodazole (NZ) and latrunculin A (Lat A). Bound proteins” for “Bound proteins”
as §2

ΔGBDΔDADG(YEKR)-mDia2 = molecular target: T3, ΔGBDΔDADG(YEKR)-mDia2 (UniProt Q9Z207 258-1030, limits assumed, 35S-methionine label (in the binding assay)); test: as above
T3 construct: a GFP-myc-tagged form was expressed in 3T3 cells for the Glu-MT assay; also called G(YEKR) mutation
T3 sequence (Q9Z207 other isoform, or with tags, fused parts or gaps mutant limits assumed): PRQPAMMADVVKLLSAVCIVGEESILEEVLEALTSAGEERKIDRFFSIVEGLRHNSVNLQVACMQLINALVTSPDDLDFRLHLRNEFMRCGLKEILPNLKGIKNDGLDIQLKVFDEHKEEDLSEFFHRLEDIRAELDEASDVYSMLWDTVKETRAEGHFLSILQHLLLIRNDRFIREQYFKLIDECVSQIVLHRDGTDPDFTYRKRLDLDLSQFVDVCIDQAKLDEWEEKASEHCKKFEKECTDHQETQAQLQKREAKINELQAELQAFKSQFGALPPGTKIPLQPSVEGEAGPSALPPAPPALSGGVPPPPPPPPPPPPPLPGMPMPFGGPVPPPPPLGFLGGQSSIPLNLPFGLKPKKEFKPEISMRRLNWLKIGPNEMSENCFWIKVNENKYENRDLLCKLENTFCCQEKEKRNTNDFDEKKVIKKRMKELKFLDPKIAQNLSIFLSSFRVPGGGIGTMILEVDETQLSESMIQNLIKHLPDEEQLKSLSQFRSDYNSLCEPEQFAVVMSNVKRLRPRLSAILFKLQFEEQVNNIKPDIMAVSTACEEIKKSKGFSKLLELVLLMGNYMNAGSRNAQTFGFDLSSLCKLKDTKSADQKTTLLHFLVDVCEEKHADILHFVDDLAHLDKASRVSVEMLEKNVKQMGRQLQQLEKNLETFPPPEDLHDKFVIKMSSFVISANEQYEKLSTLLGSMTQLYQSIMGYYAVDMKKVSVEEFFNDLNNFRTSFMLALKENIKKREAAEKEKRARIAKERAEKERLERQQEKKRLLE
From the text: as §1, with “EB1 and APC interact with mDia. (a) Binding of in vitro transcribed and translated ³⁵S-labelled ΔGBD-mDia2 to the indicated GST-tagged constructs of EB1 and APC (bottom). Arrows indicate full-length GST-APC-C or GST-APC-basic proteins. Additional bands detected in the GST-APC-C and GST-APC-basic lanes are presumed to be breakdown products. (b) Binding of in vitro transcribed and translated ³⁵S-labelled mDia2 fragments to GST-EB1, GST and GST-APC-C. (c) Binding of Flag-mDia1 expressed in COS-7 cells to GST-EB1 and GST-APC-C in the presence of DMSO, nocodazole (NZ) and latrunculin A (Lat A). Bound proteins” for “Bound proteins”
as §2

[3] = molecular target: T4, mDia2 FH2 domain fragment, in vitro transcribed and translated, 35S-labelled (UniProt Q9Z207 615-1013, limits assumed, 35S-methionine label); test: as above
T4 construct: domain: FH2
T4 sequence (Q9Z207 615-1013 limits assumed): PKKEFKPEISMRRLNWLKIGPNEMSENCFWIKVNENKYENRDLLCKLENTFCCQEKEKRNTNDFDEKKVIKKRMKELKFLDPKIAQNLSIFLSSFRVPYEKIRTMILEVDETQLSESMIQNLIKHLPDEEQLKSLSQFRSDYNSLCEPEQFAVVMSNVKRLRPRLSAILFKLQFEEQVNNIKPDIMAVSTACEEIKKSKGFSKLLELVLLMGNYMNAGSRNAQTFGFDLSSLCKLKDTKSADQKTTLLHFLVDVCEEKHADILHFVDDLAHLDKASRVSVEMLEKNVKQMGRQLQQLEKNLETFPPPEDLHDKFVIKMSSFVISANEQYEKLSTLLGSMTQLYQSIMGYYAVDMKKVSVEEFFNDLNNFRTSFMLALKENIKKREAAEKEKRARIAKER
From the text: as §1, with “EB1 and APC interact with mDia. (a) Binding of in vitro transcribed and translated ³⁵S-labelled ΔGBD-mDia2 to the indicated GST-tagged constructs of EB1 and APC (bottom). Arrows indicate full-length GST-APC-C or GST-APC-basic proteins. Additional bands detected in the GST-APC-C and GST-APC-basic lanes are presumed to be breakdown products. (b) Binding of in vitro transcribed and translated ³⁵S-labelled mDia2 fragments to GST-EB1, GST and GST-APC-C. (c) Binding of Flag-mDia1 expressed in COS-7 cells to GST-EB1 and GST-APC-C in the presence of DMSO, nocodazole (NZ) and latrunculin A (Lat A). Bound proteins” for “Bound proteins”
as §2

[4] = molecular target: B1; test: GST pull-down from COS-7 lysates, anti-GFP western blot
From the text: Residues of EB1 that were mutated to the indicated residues (below) are shaded in grey. (b) Diagram of GST-APC constructs used in this study. APC has a microtubule-binding site (labeled ‘Basic’) and a separate EB1-binding site in its C-terminus. (c) Pull-down analysis of wild type (WT) EB1-C-GFP and mutant EB1-C-GFPs by GST-APC-C1 and GST-p150^Glued (1-330). Western blots were probed with anti-GFP antibody. (d) The ability of EB1-C-GFP wild type (WT) and mutants to inhibit LPA-stimulated Glu-MTs in serum-starved 3T3 cells. All EB1-C-GFP constructs were expressed at equivalent levels on the basis of GFP fluorescence. Error bars represent the standard error from at least three independent experiments. (e) EB1-GFP and EB1-C-GFP interact with endogenous APC in cells. COS-7 cells were transiently transfected and immunoprecipitated as indicated. Western blots of the immunoprecipitates were probed with EB1 antibody. […] Cells expressing APC (untagged) were detected with antibody to APC. […]
For binding of wild-type and mutant EB1-C-GFP to APC or p150^Glued, COS-7 cells were transfected with EB1-C-GFP constructs and lysed in PBS containing 1% Triton X-100 and protease inhibitors. […] Bound proteins were analyzed by western blotting with rabbit anti-GFP (1:10,000; BD Transduction Laboratory). […] Bound proteins were eluted with SDS sample buffer and analyzed by western blotting for EB1.

B1
binding result [1]: no binding (tested: 0.3 µM)

B2
binding result [2]: no binding | binding result (GST-EB1): no binding

B3
binding result (ΔGBDΔDADG(YEKR)-mDia2): no binding | binding result [3]: no binding

B4
binding result [1]: no binding (tested: 0.3 µM)

B5
binding result [4]: no binding

B6
binding result [4]: no binding
